# From article PMC8945619
# Biological target: PECAM-1 (purified, immobilised on the sensor chip) (UniProt P16284)
# Assay: SPR
# Sequence of soluble CD177 in complex with proteinase 3 (sCD177/PR3) (Q8N6Q3 22-408): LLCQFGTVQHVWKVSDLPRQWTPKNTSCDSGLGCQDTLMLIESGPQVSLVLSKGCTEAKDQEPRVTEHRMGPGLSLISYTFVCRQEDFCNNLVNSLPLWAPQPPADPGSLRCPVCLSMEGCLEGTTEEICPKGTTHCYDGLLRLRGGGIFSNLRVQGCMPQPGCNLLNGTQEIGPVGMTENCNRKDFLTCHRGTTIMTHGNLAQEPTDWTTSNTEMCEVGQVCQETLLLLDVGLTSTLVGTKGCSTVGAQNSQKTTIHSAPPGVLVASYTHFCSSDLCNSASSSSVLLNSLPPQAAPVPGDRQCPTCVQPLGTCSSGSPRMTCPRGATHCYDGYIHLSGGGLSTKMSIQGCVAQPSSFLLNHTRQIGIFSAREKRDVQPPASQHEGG
# Sequence of soluble CD177 in complex with proteinase 3 (sCD177/PR3) (P24158 28-248): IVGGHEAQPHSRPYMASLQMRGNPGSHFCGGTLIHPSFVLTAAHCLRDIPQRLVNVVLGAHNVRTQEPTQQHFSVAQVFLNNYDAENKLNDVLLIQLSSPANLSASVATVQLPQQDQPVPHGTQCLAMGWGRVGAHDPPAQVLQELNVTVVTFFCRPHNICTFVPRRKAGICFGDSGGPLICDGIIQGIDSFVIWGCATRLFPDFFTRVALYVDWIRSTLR
# Sequence of recombinant proteinase 3 (rPR3) (P24158 28-248): as above
row,Kd [nM],Substance
1,49.8,recombinant proteinase 3 (rPR3) (from UniProt P24158 28-248) (enzyme)
2,7.39,soluble CD177 in complex with proteinase 3 (sCD177/PR3) (from UniProt Q8N6Q3 22-408; P24158 28-248)
